Numbered stars: 1 amine (or outer) side, 2 acyl side, 3 side chain; on linkers, the order of the positions; unused ones are H or OH. Square brackets hold non-standard residues; d marks the D form. Side chains are listed from the residue outwards. Ends that are not written are not given here. * marks the point of attachment. C18 diacid = O=C(O)CCCCCCCCCCCCCCCCC(=O)*; γGlu = O=C(O)[C@H](CCC(=O)[*:2])N[*:1]; AEEA = NCCOCCOCC(=O)O; Aib = CC(C)(N)C(=O)O

Experiment [1] addresses T1, human GLP-1 receptor (human, UniProt P43220 24-463). As to the kind of experiment: cell-based or functional assay.
Experiment [2] concerns the target T2, human glucagon receptor (human, UniProt P47871 26-477). Briefly: cell-based or functional assay.
Experiment [3] deals with T1, human GLP-1 receptor. Briefly: displacement of 125I-GLP-1(7-36)NH2, membranes with human GLP-1R, SPA. On the procedure:
The receptor binding of each compound to the human GLP-1 receptor was measured in a displacement binding assay. […] Each derivative was added in a series of concentrations to isolated membranes containing the human GLP-1 receptor and displacement of the labelled ligand was monitored. The receptor binding was reported as the concentration at which half of the labelled ligand was displaced from the receptor, the IC₅₀ value.
A general note: Displacement assays read how much labelled ligand stays bound in the presence of the test substance.

In experiment [4] the target is T2, human glucagon receptor. As to the kind of experiment: displacement of 125I-glucagon, membranes with human glucagon receptor, SPA. The procedure: The receptor binding of each compound to the human glucagon receptor was measured in a displacement binding assay. […] Each derivative was added in a series of concentrations to isolated membranes containing the human glucagon receptor and displacement of the labelled ligand is monitored. The receptor binding was reported as the concentration at which half of the labelled ligand is displaced from the receptor, the IC₅₀ value.

T2 sequence (P47871 26-477): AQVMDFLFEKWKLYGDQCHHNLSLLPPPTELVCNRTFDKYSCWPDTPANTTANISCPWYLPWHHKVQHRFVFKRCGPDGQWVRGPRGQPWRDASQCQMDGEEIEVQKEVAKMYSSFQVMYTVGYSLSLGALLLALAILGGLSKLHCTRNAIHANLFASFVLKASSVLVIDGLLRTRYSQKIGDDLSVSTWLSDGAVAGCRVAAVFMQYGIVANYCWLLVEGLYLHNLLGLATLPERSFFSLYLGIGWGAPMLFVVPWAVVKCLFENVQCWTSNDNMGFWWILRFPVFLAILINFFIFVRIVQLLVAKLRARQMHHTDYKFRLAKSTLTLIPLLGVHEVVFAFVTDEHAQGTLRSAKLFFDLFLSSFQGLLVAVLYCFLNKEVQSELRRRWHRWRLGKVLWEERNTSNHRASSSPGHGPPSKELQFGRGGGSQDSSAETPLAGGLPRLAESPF

B1: N^ε28-[(4S)-4-carboxy-4-[[(4S)-4-carboxy-4-[[2-[2-[2-[[2-[2-[2-[[(4S)-4-carboxy-4-(17-carboxyheptadecanoylamino)butanoyl]amino]ethoxy]ethoxy]acetyl]amino]ethoxy … (peptide)
peptide: H[Aib]QGTFTSDLSKYLESKAAREFVQWLLK([γGlu-γGlu-AEEA-AEEA-γGlu-C18 diacid])T-NH2
modifications: N-terminus assumed
SMILES: CC(C)C[C@H](NC(=O)[C@H](Cc1ccc(O)cc1)NC(=O)[C@H](CCCCN)NC(=O)[C@H](CO)NC(=O)[C@H](CC(C)C)NC(=O)[C@H](CC(=O)O)NC(=O)[C@H](CO)NC(=O)[C@@H](NC(=O)[C@H](Cc1ccccc1)NC(=O)[C@@H](NC(=O)CNC(=O)[C@H](CCC(N)=O)NC(=O)C(C)(C)NC(=O)[C@@H](N)Cc1c[nH]cn1)[C@@H](C)O)[C@@H](C)O)C(=O)N[C@@H](CCC(=O)O)C(=O)N[C@@H](CO)C(=O)N[C@@H](CCCCN)C(=O)N[C@@H](C)C(=O)N[C@@H](C)C(=O)N[C@@H](CCCNC(=N)N)C(=O)N[C@@H](CCC(=O)O)C(=O)N[C@@H](Cc1ccccc1)C(=O)N[C@H](C(=O)N[C@@H](CCC(N)=O)C(=O)N[C@@H](Cc1c[nH]c2ccccc12)C(=O)N[C@@H](CC(C)C)C(=O)N[C@@H](CC(C)C)C(=O)N[C@@H](CCCCNC(=O)CC[C@H](NC(=O)CC[C@H](NC(=O)COCCOCCNC(=O)COCCOCCNC(=O)CC[C@H](NC(=O)CCCCCCCCCCCCCCCCC(=O)O)C(=O)O)C(=O)O)C(=O)O)C(=O)N[C@H](C(N)=O)[C@@H](C)O)C(C)C
For the molecule B1, the “EC50 GLP-1R, CRE luciferase reporter gene assay in BHK cells” value in the experiment with human GLP-1 receptor [1] stood at 0.0119 nM. In the experiment with human glucagon receptor [2], the “EC50 GlucR, CRE luciferase reporter gene assay in BHK cells” value was 0.506 nM. The IC50 (usually the point on the concentration scale where inhibition reaches its midpoint) in the experiment with human GLP-1 receptor [3] was 0.2 nM; with human glucagon receptor [4], 61 nM.

B2: N^ε28-[(4S)-4-carboxy-4-[[(4S)-4-carboxy-4-[[2-[2-[2-[[2-[2-[2-[[(4S)-4-carboxy-4-(17-carboxyheptadecanoylamino)butanoyl]amino]ethoxy]ethoxy]acetyl]amino]ethoxy … (peptide)
peptide: H[Aib]QGTFTSDLSKYLDARRAREFVQWLLK([γGlu-γGlu-AEEA-AEEA-γGlu-C18 diacid])T-NH2
modifications: N-terminus assumed
SMILES: CC(C)C[C@H](NC(=O)[C@H](Cc1ccc(O)cc1)NC(=O)[C@H](CCCCN)NC(=O)[C@H](CO)NC(=O)[C@H](CC(C)C)NC(=O)[C@H](CC(=O)O)NC(=O)[C@H](CO)NC(=O)[C@@H](NC(=O)[C@H](Cc1ccccc1)NC(=O)[C@@H](NC(=O)CNC(=O)[C@H](CCC(N)=O)NC(=O)C(C)(C)NC(=O)[C@@H](N)Cc1c[nH]cn1)[C@@H](C)O)[C@@H](C)O)C(=O)N[C@@H](CC(=O)O)C(=O)N[C@@H](C)C(=O)N[C@@H](CCCNC(=N)N)C(=O)N[C@@H](CCCNC(=N)N)C(=O)N[C@@H](C)C(=O)N[C@@H](CCCNC(=N)N)C(=O)N[C@@H](CCC(=O)O)C(=O)N[C@@H](Cc1ccccc1)C(=O)N[C@H](C(=O)N[C@@H](CCC(N)=O)C(=O)N[C@@H](Cc1c[nH]c2ccccc12)C(=O)N[C@@H](CC(C)C)C(=O)N[C@@H](CC(C)C)C(=O)N[C@@H](CCCCNC(=O)CC[C@H](NC(=O)CC[C@H](NC(=O)COCCOCCNC(=O)COCCOCCNC(=O)CC[C@H](NC(=O)CCCCCCCCCCCCCCCCC(=O)O)C(=O)O)C(=O)O)C(=O)O)C(=O)N[C@H](C(N)=O)[C@@H](C)O)C(C)C
As for B2, the “EC50 GLP-1R, CRE luciferase reporter gene assay in BHK cells” value with human GLP-1 receptor [1] turned out to be 0.005 nM. The “EC50 GlucR, CRE luciferase reporter gene assay in BHK cells” value with human glucagon receptor [2] was found to be 0.002 nM. Also, the concentration for half-maximal inhibition (IC50) is 0.3 nM in the experiment with human GLP-1 receptor [3] and 5.6 nM in the experiment with human glucagon receptor [4].

The values above are taken from patent US20150374794A1 (Novo Nordisk, published 2015).
